Columns and labels:
Experiment in all cases: EMSA; no ATP, 5 mM Mg2+; 35 mM Tris-HCl pH 7.5, 1 mM DTT, 5 mM MgCl2, 60 mM KCl, 0.1 mg/ml BSA, no ATP, 30 min at 30 C; 5 nM ssDNA
Settings in all cases: protein: recombinant; tags: N-terminal superfolder GFP; Ni-NTA purified; label: 5' Alexa647
GFP-Pif1 F723A = molecular target: T1, GFP-Pif1 F723A (Saccharomyces cerevisiae, UniProt P07271 40-859, F723A)
T1 sequence: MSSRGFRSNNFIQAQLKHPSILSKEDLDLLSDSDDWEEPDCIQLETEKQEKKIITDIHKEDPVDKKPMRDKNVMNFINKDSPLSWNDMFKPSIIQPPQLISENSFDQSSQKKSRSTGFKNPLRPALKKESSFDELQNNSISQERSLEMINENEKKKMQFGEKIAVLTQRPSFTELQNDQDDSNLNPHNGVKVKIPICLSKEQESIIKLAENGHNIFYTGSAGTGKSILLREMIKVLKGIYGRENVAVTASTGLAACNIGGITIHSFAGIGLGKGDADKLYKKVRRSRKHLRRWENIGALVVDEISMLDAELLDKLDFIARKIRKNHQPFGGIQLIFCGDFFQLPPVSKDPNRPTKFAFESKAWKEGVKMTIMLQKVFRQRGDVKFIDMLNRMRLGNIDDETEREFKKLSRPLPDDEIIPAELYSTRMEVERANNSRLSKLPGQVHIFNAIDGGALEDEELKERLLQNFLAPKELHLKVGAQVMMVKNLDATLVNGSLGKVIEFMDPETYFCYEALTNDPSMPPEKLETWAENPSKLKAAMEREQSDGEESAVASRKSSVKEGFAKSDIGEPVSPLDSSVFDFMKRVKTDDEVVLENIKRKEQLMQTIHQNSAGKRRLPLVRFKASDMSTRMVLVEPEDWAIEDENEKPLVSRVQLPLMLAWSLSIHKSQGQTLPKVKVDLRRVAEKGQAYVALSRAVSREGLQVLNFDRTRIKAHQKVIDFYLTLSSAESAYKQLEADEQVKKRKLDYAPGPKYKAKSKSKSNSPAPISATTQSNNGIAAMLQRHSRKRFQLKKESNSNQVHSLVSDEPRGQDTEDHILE

GFP-Pif1 L310A = molecular target: T2, GFP-Pif1 L310A (Saccharomyces cerevisiae, UniProt P07271 40-859, L310A)
T2 sequence: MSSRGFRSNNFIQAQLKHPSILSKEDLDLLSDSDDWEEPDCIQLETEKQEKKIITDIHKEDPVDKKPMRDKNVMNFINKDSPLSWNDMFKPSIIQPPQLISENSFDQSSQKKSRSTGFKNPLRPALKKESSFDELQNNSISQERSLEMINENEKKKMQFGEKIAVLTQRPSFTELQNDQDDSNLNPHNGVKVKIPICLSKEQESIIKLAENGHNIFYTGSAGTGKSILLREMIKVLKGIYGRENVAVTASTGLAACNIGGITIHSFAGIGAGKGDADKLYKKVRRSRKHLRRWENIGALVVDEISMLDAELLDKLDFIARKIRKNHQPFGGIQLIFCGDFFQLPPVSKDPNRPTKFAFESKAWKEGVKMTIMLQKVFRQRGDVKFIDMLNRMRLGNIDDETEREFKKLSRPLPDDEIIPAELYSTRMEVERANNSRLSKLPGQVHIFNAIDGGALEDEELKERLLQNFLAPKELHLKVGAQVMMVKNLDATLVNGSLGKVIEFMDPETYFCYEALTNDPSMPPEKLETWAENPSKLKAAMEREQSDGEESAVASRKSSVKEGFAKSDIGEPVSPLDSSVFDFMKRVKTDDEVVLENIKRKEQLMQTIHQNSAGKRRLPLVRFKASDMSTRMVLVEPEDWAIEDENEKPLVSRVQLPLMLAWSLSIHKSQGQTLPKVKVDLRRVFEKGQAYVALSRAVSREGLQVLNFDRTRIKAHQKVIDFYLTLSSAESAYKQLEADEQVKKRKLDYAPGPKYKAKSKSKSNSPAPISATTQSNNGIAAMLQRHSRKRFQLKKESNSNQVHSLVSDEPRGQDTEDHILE

GFP-Pif1 K387A = molecular target: T3, GFP-Pif1 K387A (Saccharomyces cerevisiae, UniProt P07271 40-859, K387A)
T3 sequence: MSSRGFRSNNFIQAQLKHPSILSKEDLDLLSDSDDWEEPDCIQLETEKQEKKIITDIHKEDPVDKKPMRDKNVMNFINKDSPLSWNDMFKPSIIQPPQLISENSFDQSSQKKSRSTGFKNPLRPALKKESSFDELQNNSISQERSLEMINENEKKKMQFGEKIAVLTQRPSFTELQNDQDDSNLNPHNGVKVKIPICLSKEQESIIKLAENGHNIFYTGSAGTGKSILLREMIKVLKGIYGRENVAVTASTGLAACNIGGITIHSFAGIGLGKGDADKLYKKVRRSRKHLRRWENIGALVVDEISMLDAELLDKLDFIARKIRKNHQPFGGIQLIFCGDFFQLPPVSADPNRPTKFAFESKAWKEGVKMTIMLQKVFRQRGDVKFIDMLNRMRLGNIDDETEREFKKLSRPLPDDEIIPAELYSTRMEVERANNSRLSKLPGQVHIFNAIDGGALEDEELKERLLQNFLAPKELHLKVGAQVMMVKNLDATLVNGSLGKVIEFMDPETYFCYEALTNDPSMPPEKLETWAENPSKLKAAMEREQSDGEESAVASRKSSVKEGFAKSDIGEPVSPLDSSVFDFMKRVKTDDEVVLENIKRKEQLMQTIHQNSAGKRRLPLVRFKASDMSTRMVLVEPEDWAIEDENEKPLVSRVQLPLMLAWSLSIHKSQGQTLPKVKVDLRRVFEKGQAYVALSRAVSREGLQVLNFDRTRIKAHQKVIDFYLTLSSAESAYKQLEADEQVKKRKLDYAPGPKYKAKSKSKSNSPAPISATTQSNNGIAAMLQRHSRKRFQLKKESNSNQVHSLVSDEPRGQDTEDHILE

Q: With GCTAGCAGTAGCCAGCATCGAACGTACGATCGGTAACGTA (ssDNA) [40-nt ssDNA] as the binder, how does the Kd (GFP-Pif1 F723A) read?
A: The Kd was 55.6 ± 18.5 nM.

Q: And the Kd (GFP-Pif1 L310A)?
A: The Kd was 27.8 nM.

Q: What about the Kd (GFP-Pif1 K387A) of the same binder?
A: Its Kd is 29 nM.

From publication PMC10279920, “Single-molecule visualization of Pif1 helicase translocation on single-stranded DNA” (The Journal of Biological Chemistry, 2023)
